The results in this text go back to patent publication US20090270325A1.

Assay [1] addresses human GHR on human 293 cells stably expressing the human GHR (human) (UniProt P10912).
For assay [2] the target is unchanged. The source holds these as a separate data set.

“hGH-GHR Chimera (75 kDa chimera) (from UniProt P01241)” displayed a concentration for the maximal response, Stat 5 luciferase-reporter assay in assay [1] of 50 to 250 nM. For the same substance, in assay [2], the GH-specific luciferase reporter assay (bioactivity) worked out at 10%.
